We go through 21 sequences from a protein production outcome set (Wang et al. 2014).

The data set can be described thus: label from the status in PepcDB records.
For the sequence “MANADLDKQPDSVSSVLKVFGILQALGEEREIGITELSQRVMMSKSTVYRFLQTMKTLGYVAQEGESEKYSLTLKLFELGARALQNVDLIRSADIQMRELSRLTKETIHLGALDEDSIVYIHKIDSMYNLRMYSRIGRRNPLYSTAIGKVLLAWRDRDEVKQILEGVEYKRSTERTITSTEALLPVLDQVREQGYGEDNEEQEEGLRCIAVPVFDRFGVVIAGLSISFPTLRFSEERLQEYVAMLHTAARKISAQMGYHDYPF”, the protein production result is “not failed”. “MSLSNGELAILVFGYPETMANQVIAYFQEFGTILEDFEVLRKPQAMTVGLQDRQFVPIFSGNSWTKITYDNPASAVDALLENGAVFNGVLLGVIPYTKDAVERLQKRKLTSSEDIGSGITTAAAEGHHHHHH”: the protein production entry was “not failed”. As for “MISSLKLTEMCTHCGFCLETCPTYVVTRNEVHSPRGRIEAVRIGINSTGFETCMYCRLCETACPAGVKYAQIITPVRKSSLKKTVMEKMLENPKLLAKSLKLLSKANSYPEVQRFVKFVKPNEVSEPLETDGEGDIILFPGCIESVIFRKTVEKAYKYLGKKYKVKIINGCCGLAHISNGNYEGAKKLAIRLAEKVKGKKVITLQSNCAAFMKEYKEWFGIEINAYDFAEFLIKEGIELPKVNDTFTVHYPCHAYRQKLVSHIRNVAEKMGIKIREMEDPHFECGAGGDYWLSHPKLSDMVMNVKRGKIAKSEAKKVIVTNSVCALAIRSMGYDVYHIADLLDT”, the protein production result is listed as “failed”. With “MKIATYNVRVDTEYDQDWQWSFRKEAVCQLINFHDWSLCCIQEVRPNQVRDLKAYTTFTCLSAEREGDGQGEGLAILYNEQKVQAIDTGYFWLSETPQQPSIHPEAGCPRIALWGLFKETTQNTPFLVINVHLDHISAHARLAGMTVILEELHDKIAQYPTLLMGDFNAESGEEVHQLVQKKFQDSKNLATHYGPRGTFQNFTYTKPWAELEEIDYIYVKGWQVQQTASLTDSIDGRFPSDHFPLEAEVCIEE”, the protein production result is “failed”. For “MMMLPEACVANILAFTSPADAFSSSEVSSVFRLAGDSDFVWEKFLPSHYKSLISQSTDHHRIFSSKKEIYRCLCDSLLIDNARKLFKINKFSGKISYILSARDISITYSDHASYCSWSNVSDSRFSESAELITTDRLEIKGKIQTTVLSPNTKYGAYLIMKVTNGAYGLDLVPAETSVKSKNGQNNKNTTYLCCLDEKKQQMKRLFYGNREERMAMTVEAVGGDGKRREPKARDDGWLEIELGEFVTREGEDDEVNMSLTEVKGYQLKGGIVIDGIEVRPIPLK”, the protein production entry is “failed”. Regarding “MKGRSGDVNINTNAISTPARVLIYSTAAVLLTIGMKAISSILMPIFFSIFSYLIFAPLVRWLMRKRVPGKISVVLVILVFIFVFVGTTLLFANSLLQLSGRIPNYENQLTSILNSISIYLPEAGVSVESVLRDIAAFAFNVSGDIISGALNAGSTIALIVITTTFLLLDSAGAPVKMQKEGENQPVHISQYTELSRTVINYMLLRTETNLLGGIGTAILLLAGGIDFAVLWGLLFFLFGYIPYLGFYLAAIPPMLLGLFEYGLIGAVGVLVGITIINALVENVIFPSLAGKGLKLSPTLVFLSLFYWSFVLGAAGALIAVPLTIVVKIILESSEETRMIAKLMESSGTRDLDEKSTEENISE”, the protein production entry is recorded as “failed”.

Take “MLSARTMKEVVYWSPKKVADWLLENAMPEYCEPLEHFTGQDLINLTQEDFKKPPLYRVSSDNGQRLLDMIETLKMEHHMEAHKN”: the protein production result is given as “not failed”. Next, “MKPTLFLLAAGMGSRYGGLKQLDGLGPNGETIMDYSIYDAINAGFGKLVFVIRKDFEQDFREKIISKYEGHIPCELVFQSIDDLPEGFTCPADRTKPWGTNHAVMMGADVISEPFAVINCDDFYGRDSFQVMGKFLSALPENSKNVYSMVGFRVGNTLSESGTVSRGICSTDANNLLTSVVERTKIQRLDGEVKYIDDNGEWTATPDTTPVSMNFWGFTPDYFAYSEEFFKTFLSDPKNMENLKSEFFIPLMVDKLINDGTATVEVLDTTSKWFGVTYPEDRQSVVDKIQALVDAGEYPAKLFLEHHHHHH”: “failed”; “MMEEVARVVACDNQGWLTVEVELKSTCKSCNSSESCGTSAVAQAFSSKTQQFSIQSERTCEVGELLKLGLPESVILKAAALVYLMPLLGLFLGALSGQFFAGLFQINADLSAIGFAALGAITAWLIGKRKAKQLEVDSQPVILAYLGAGISLEKLPV”: “failed”; “MILFSPVARDSAAGQAAALRAPVSLQDDTLKIFGFDDQSVGQPLSGGTDILACLTLFNEPAEAVAGTLAFLAANQDMLASRNGPIQRLEVAIVLDGRDRVHPETEALFNRLGFDLDWGCDPEAAGIGQHGADEAQVRVQTRLIPVDLLTGVSGNPLRVHLAVKDRNRGKLDSHAFFFRSLAERLQPDFVLQIDAGSRPVADCLPALLAQMEREPDCAALATNIVMEDAALTDWLQSWQQADFLWQKLSDWPIGNGLGYLEVVPGQASLLRMSALRRGANGDPLAAYLRGLSRPKSLMEANLFLAEDRIIGAEIVKSHPACTIRYHHDANLVTDGCATVGELLRQRRRWTNSTLVARLVAIGSLADLLWHGRLPPARWCSMALALAWTLLQLLEQWFIPASLALLVSLTSGFWQDEAKNGVAGQGLAWGMATGVLLFWLYCLASMKGREGERSLSRRLHGGLHGLGLGILLACTVLGFAICLVEVGPVIQGAILTVALILGMAVWHHSSRGMSDLLRVFVLYIPSAPVASFYLLSYALANFHDVSWGTKGLVGDIKAVIPAGWRRMRLRLLILWVVSNTALVWLVMGVVPGGAISVLHYACLPVVGQIAIASLLLLSASCRKPVSPSPEVTVRAGSGPHLHR”: “failed”. Consider “MRVVVMGCGRVGASVADGLSRIGHEVAIIDRDSAAFNRLSPQFAGERVLGQGFDRDVLLRAGIQGADAFAAVSSGDNSNIISARLARETFGVPRVVARIYDAKRAEVYERLGIPTIATVPWTTDRLLNALMQDTETAKWRDPTGTVAVAEVVLHEDWVGHRATDLEQATGARIAFLIRFGTGVLPEPKTVLQAGDKVYIAAISGRAAEAAAIAALPPSEDFESGARR”, for which the protein production result was “failed”. In the case of “MKHLNIYIMLLGFSIFTGATFNLAKYTVGYFSPSSSAAWRFGLAAAVMLIILIFTEGIKKSQLRKNAVSYIVLGIIGIFGFNALFFVGLKYTSPVNGALIMGLNPLLTAILARIILKDNMTKKQVLGIFFAFIGVLLVITQGSIETIKTLSISGGDLIIFTGNVCWALYGVLGRRFVKDGTPLSTTTYTMVIGAVSLIVVSLFTSKPVSLSNIPIGVWGAIAFMAFFTSVLGYLWWNQGIKEIGASKTSLFFNLVPVVTMIISFAVGTPIKVFQVIGAVLVILGVLTASGVIRIPKYNTKEQSAI”, the protein production entry is reported as “failed”.

Take “MSHRSPSVTPAVSVLIPAWNAVRHLPAALDGLLSQTFQDWEAVVVDDGSQDETPALLAAYAARDARIRPLHVEHGGIVHALNHGLLHVRGRHVARMDADDTCHPERLALQCHALDNAPHLGLVASRVTFGGDAAQCGGFVRYVDWTNSLLCHEDIALGRFRESPLVHPSVMFRRELIDRFGPYANGPFPEDYELWLRWLEAGVRMEKLPEHLLVWNDPPGRLTRTHDNYAEAGFVALRTRYLARWLCAHNPQHPDVWVIGAGKASRRRARPLCEHGIRIRAWVDIDPHKIGNIVEGLPVVGREAMPAPGQGFMLAFLAGHGAAEELELFLHGAGYLPGQDYLLASLEHHHHHH”: the protein production result is reported as “not failed”. In the case of “MVKKIGLSIMLLFFFLIIALPIYAWKIEPNLVHVNQVTLGKKNQREPLNVVQLSDIQVSEFYETKRLDKVIKKVNREKPDIIVFTGDLFDNYAKNPQQKEPMIEKLKQLQATIGKYAVWGNHDYGGGASAVYDEVMEASGFTVMKNQGETVTLADGRRLFIGGLDDSLLGNPSVSETLSYRETYDYALLMTHEPDVADAFVGTGTQLVLAGHSHGGQIWIPFYPITNVLAEKYTRGLYQLDQETQLYVNTGLGTTAIHARFGVIPEITHFTIYI”, the protein production result was “failed”. In the case of “RVLEFHPLGSGLAMTEFVVGSRLMGKTLSDLALCKVEGVQVLGFKRGPEIIKAPDMSTTLEIGDLIIVVGPQDKLANKLKSL”, the protein production result was “failed”. Under “MKKLGFVLFMSMFAFVSVVPAAEAKVIDHDKVQGFSEVTPVTVSQKAAKRFQPYLKVASGCVPFPAVDAQGNTSGGLEPTGAPEGHCSKSVGQVYSRSAWYNGVWAIMYAWYFPKDSPLPLKAFGHRHDWEGIVVWIDNPANQNPKVLSIAYSQHGKFQKTAPNNNIMEGDHPKIRYDAPQPPINHSLYVDSAKGGTQPLIGWEDLTPAARNALNTTDFGSANVPFNDHNFTNNLGKAWFR” stands “failed”; under “MSKVRVAGFSVSVDGFGAGPEQSLNDPLGKRGPEMFQWFFHTRTFRAMMGKDDGSTGIDEDYASRAMANFGAFILGRNMFGPIRGEWPDDAWKGWWGPNPPYHAPTYVLTHYPREPLVMEGGTTFHFVTGGIHQALDQAKAAAGDKDVKIGGGVATVRQYLQAGLIDELHFAVSPVVLGKGEAMFAGIDLPALDFRVTEHAASEKATHIVLAKLEHHHHHH”, “failed”; under “MIPTATYRLQFRNGMTFDRAAALVPYLKNLGISHLYASPIFTATKASTHGYDVTDANEIEPSIGGREGFERLVAELKAQGLGLIIDIVPNHMASSLENAWWRDVLEYGKESRYARHFDIDWSRRLTLPFLGDTFDAVLENGEIAIKPDPATGKPAFAYYDNYYPLAPATWQGREAEILALTDKAAIADLHERQPWKLMSWRDAARSLSYRRFFEVTGLVGMRVEDKTVFDDTHRLILELVRTGAVDGLRIDHIDGLADPKAYLARLRQEVGPACYITVEKILAKGEQLPDDWPVSGTTGYEFIASLAEVLVDDEQIDNLRQAYETVKGAPVDMRAELRAAKLLMVDRNFEGEFTRLLALALSIASELQIAQEESVVRQALRELLIAFPVYRTYGTAEGLPPTDICLLHRIVERVKTLETPPQPEALTFLSRLLTGDVPASSQEEATQFRVRFQQLTGPLMAKSVEDTLFFRQNMGLALNEVGAEPVTHHFSIERFHHEMKTRQARQPDALSGTSTHDTKRGEDARARLYTLTEAPEQWSECLARWRQMNQTHVKFLNDGTAPKSADTWMLYQALTGVWPPVLQPQDETGLNALKTRFEAFVEKALREAKLRTDWVDSNEAYETAMLDYARYLLAPDNQTFLQDFYRSLQPFIRAGLVNSLTQTVIKLTAPGVPDIYQGSEALNFSLVDPDNRREPDFATLAQQLDQLTPGVFSREESWLNGQVNQYVTAALLRLRQQNHELFRFGDYIPLRAVGQRADKVIAYARVNHDDALIVVAPRLVFAECDGLLSQSHSGFWSGTDIIIPGQLNQHRYRNVLTQERLMPGERLSLASHQGGVLVLMSD”, “failed”. Next, “NAGFECGTEYLNFDEQPATMLDANLLSVEEGYPVTIIERLRTADGEPVVYCLDKIAKKELTCTEYQMSNGSILSAIKEQSNHNICYADTEIEAVNYEPRISEVLNASPHEGLILLKITHYNELDEPILYSLNYMKNSLVQ”: “failed”; “GSAQPRHDAQRPALAPRSDGFDIHTYHPDFVADPYPLLRLIRSRAPVCRDQASIWWISRYADVSACLRDRRFSADPARLGAAGVRQGGASWFGHQQLQPLARFYDNFMLFNDAPRHTRLRRLFAPAFGPDAVRRWEARIEVLVEELLDSLLERREPDLLRDFAEPLTIRVAAELFGFPREDTGQLLPWGRDLAAGLDLAASHGDAGQINRSAVAFSDYLQRQARGWSDGSSRPPSGAAPSILDGAAMLEAGLGLEDLVAAYAMVFMAAFETTISMVGNATLALLTHPDQLDLLRRCPELAANAVEELLRFDGAVRGGVRCTLEEVEIGGQRIPPGEKVWLSFLAANRDPEMFAAPDRLQLQRANAKQHVAFAHGPHYCLGAYLARLELQCALRGLVRRRFALASEPTDLRWRRSSVFRTLERLPIVP”: “failed”. Turning to “MKSALSDFILGKKGIYGILHIIILLMSLFLVISISIDTFKGIPFYTQSSYMKIQLWICIWFLFDFVLEFFLAKHKWRYIRTHFIFLLVAIPYQNIIAYYGWTFSPEVTYLLRFIPLLRGGYALAIVVGWLTYNRASSLFVSYLTMLLATVYFASLAFFVLEHKVNPLVTDYGDALWWAFMDVTTVGSNIIAMTTTGRVLSVLLAALGMMMFPIFTVYITNLIQQSNQKKKQYYAEEEEKTASA”, the protein production result was “failed”.
